In assay [1] the target is high-affinity oncomodulin receptor on retinal ganglion cells (RGCs) (rat). Briefly: AP-OM binding to lightly fixed, forskolin-treated immunopurified rat RGCs; saturation curve.
Assay [2] has the same target. In words: AP-OM binding to lightly fixed, forskolin-treated immunopurified rat RGCs; saturation curve and Scatchard plot.
For assay [3] the target is unchanged. Briefly: cell-based or functional assay.
For assay [4] the target is unchanged. In words: displacement of AP-OM (40 nM, equilibrium binding) from RGCs by unlabeled oncomodulin.

As usually defined, the Kd is the constant that tells how readily two partners part at equilibrium. Usually IC50 stands for the midpoint of a concentration-inhibition curve. Read a low IC50 as higher potency.

“alkaline phosphatase (AP)-oncomodulin fusion protein (from UniProt P02631 1-109) (ligand)” came in with a concentration at which binding saturated in assay [1] of over 100 nM. The substance further returned an equilibrium dissociation constant (Kd) in assay [2] of 0.028 µM.

Substance “recombinant rat oncomodulin (from UniProt P02631 2-109) (ligand)” had an effective concentration for half-maximum response (EC50) of axon outgrowth from RGCs in assay [3] of 0.0038 µM. In assay [4], the concentration for half-maximal inhibition (IC50) came to 0.03 µM.

These data come from patent US20090156496A1, “METHODS AND COMPOSITIONS FOR TREATING AND PREVENTING PERIPHERAL NERVE DAMAGE” (CHILDREN'S MEDICAL CENTER CORPORATION, INC., priority 2006, published 2009).
